Target: RhoA (UniProt P61586)
Sequence (P61586 whole entry): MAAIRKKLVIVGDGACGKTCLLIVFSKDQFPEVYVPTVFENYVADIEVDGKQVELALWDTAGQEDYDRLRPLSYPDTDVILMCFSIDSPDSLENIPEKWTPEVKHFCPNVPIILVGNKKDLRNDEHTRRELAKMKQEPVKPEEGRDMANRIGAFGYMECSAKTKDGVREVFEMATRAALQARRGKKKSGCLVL

Chain of SseJ (Q9FD10 whole entry): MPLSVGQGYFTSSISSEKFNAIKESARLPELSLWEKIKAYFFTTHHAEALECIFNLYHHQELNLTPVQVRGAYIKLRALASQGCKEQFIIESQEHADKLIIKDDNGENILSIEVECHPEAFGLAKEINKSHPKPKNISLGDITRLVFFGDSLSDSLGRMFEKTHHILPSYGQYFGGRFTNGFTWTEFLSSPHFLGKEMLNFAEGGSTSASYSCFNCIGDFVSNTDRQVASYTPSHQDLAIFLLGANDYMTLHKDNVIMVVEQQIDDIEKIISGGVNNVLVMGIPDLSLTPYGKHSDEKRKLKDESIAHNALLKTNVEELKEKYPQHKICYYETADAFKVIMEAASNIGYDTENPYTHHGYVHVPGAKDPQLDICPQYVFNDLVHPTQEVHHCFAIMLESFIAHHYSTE

SseJ (from UniProt Q9FD10 1-408) (enzyme)
SseJ lipase stimulation (PNPP), 200 nM SseJ and 200 nM RhoA-GDP: 0.21 mAU/min | SseJ lipase stimulation (PNPP), 200 nM SseJ and 200 nM RhoA-GTPγS: 1.2 mAU/min
